Experimental data taken from article PMC5526835.

Molecular target: PCM1 (endogenous) [human (endogenous in HEK293A)]
Assay: GFP-TRAP pull-down and immunoblot, quantified
Conditions: read off a plot, scale: relative protein level normalized to ponceau

GFP-GABARAP mutant G116A [human] / PCM1 (endogenous) [human (endogenous in HEK293A)] chain 1 G116A
response (EBSS (ES) for 2 hr): 0.85 | response (EBSS + BAFA (EB) for 2 hr): 1.2 | response (full medium (FM)): 1
